Laboratory results taken from patent US20240366811A1, “RA[…] P[…] USES THEREOF” (TIANJIN CONJUSTAR BIOLOGICS CO., LTD., priority 2023, published 2024).
*1 amine or outer side, *2 acyl side, *3 side chain or, on linkers, in order; H or OH if unused. Where a SMILES comes first, the peptide text is derived from it. Bridges are numbered along the chain shown (N, C = ends). [ ]: non-standard residue; d: D form. The star is where a group is joined. TATA = O=C(CC[*:1])N1CN(C(=O)CC[*:2])CN(C(=O)CC[*:3])C1; NOTA = O=C(O)CN1CCN(CC(=O)O)CCN(CC(=O)*)CC1; Hyp = O=C(O)[C@@H]1C[C@@H](O)CN1; hArg = N=C(N)NCCCC[C@H](N)C(=O)O; Pen = CC(C)(S)[C@H](N)C(=O)O; βAla = NCCC(=O)O; Sar = CNCC(=O)O

Columns and labels:
[1] = test system: PC-3 tumor-bearing mice; details: 4 h; dissected tissue uptake ratio; mouse S3;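 further: dissected tissues were weighed and their radioactivity counted, uptake given as percent of administered dose per gram, tissue ratios derived from these values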
Procedure: In vivo radiobiological distribution assay: mice in the PET/CT imaging group were sacrificed immediately after the end of 4 h imaging, and mice in the inhibition group were sacrificed after 1 h imaging. Tissue samples of tumor, blood, heart, lung, liver, spleen, kidney, stomach, intestine, bone, muscle, and brain were collected by dissection, weighed and their radioactive counts were recorded. The probe uptake value in each tissue and organ of each experimental animal is expressed as radioactivity per gram of tissue as a percentage of the dose administered (% ID/g).

[2] = in vivo; details: nude, mouse, iv, 11.1 MBq, total radioactivity
Procedure: The tissue distribution characteristics of the compounds in PC-3 tumor-bearing mice were studied by using the PC-3 tumor-bearing mice model, small animal PET/CT scans were performed at different time points after a single intravenous administration of the compounds, tumors and other regions of interest were delineated to obtain radioactive uptake values.
Tumor cells in the logarithmic growth phase were used for in vivo tumor inoculation. PC-3 cells were suspended in saline at a density of 5×10^6/mL, and a total of 15 nude mice were inoculated under the right flank at 0.1 mL per inoculation point. Imaging and biodistribution experiments were performed when tumors grew to 300-600 mm^3 (tumor volume measurement method: the long diameter and short diameter of the tumor were measured, and its volume calculation formula was: volume=0.5× major diameter× minor diameter^2). The drug was distributed according to the animal dose on the drug distribution table, and a certain volume of compound diluent was absorbed by a 1 mL insulin syringe, and the initial radioactive dose and initial dosimetry time were recorded. The injection time, residual radioactivity dose, and residual dose determination time were recorded after tail vein injection in tumor-bearing mice. […] PET/CT scans of animals were performed at different time points after administration. During the scanning process, the animals continued to inhale 1-2% isoflurane to maintain the anesthetic effect, and the scanning time was recorded. […] After the completion of PET/CT scanning, the images were reconstructed and the images and data were processed with the software of the device. The tumor, heart (including contents), kidney, intestine, and muscle were delineated as regions of interest. The percentage injection dose rate per gram of tissue in the area of interest (% ID/g) was obtained. The data of biological distribution was expressed as the percentage of radioactive count per gram of tissue or organ to the total dose (radioactive count) (% ID/g).
Data for each sampling point were expressed as the mean standard deviation (mean SD) of 3 tumor-bearing mice.

[3] = tumor and heart (including contents)

With `CC(C)C[C@@H]1NC(=O)[C@@H]2CSCCC(=O)N3CN(CN(C3)C(=O)CCSC(C)(C)[C@@H](C(N)=O)NC(=O)[C@H](CCCCNC(=N)N)NC(=O)[C@H](Cc3c[nH]c4ccccc34)NC(=O)[C@@H](CC(=O)O)NC(=O)[C@@H]3CCCN3C(=O)[C@H](Cc3c[nH]cn3)NC1=O)C(=O)CCSC[C@H](NC(=O)[C@@H]1CC(=O)NCCCC[C@H](NC(=O)CN(C)C(=O)CN(C)C(=O)CN(C)C(=O)CN(C)C(=O)CN(C)C(=O)CN(C)C(=O)CN(C)C(=O)CN(C)C(=O)CN(C)C(=O)CN(C)C(=O)CCNC(=O)CN3CCN(CC(=O)O)CCN(CC(=O)O)CC3)C(=O)N[C@@H](CCCCNC(=N)N)C(=O)N1)C(=O)N1C[C@H](O)C[C@H]1C(=O)N[C@@H](CC(C)C)C(=O)N[C@@H](C(C)C)C(=O)N[C@@H](CC(N)=O)C(=O)N1CCC[C@H]1C(=O)N[C@@H](CC(C)C)C(=O)N2` [Example 3] ({NOTA-βAla}-[Sar][Sar][Sar][Sar][Sar][Sar][Sar][Sar][Sar][Sar]K[hArg]DC[Hyp]LVNPLCLHP[dD]W[hArg][Pen]-NH2; lactam 11-13; linker 14-21-28 via TATA) the Tumor/muscle [1] was 19.97, the Tumor/spleen [1] was 10.00 and the Tumor/stomach [1] was 34.54. For the same compound, the tissue uptake at 2 min ([2]; heart (including contents)) was 3.35 ± 0.35 %ID/g, the tissue uptake at 5 min ([2]; heart (including contents)) was 2.95 ± 0.63 %ID/g and the tissue uptake at 8 min ([2]; heart (including contents)) was 2.59 ± 0.67 %ID/g. For the same compound, the tissue uptake at 11 min ([2]; heart (including contents)) was 2.18 ± 0.51 %ID/g, the tissue uptake at 14 min ([2]; heart (including contents)) was 1.86 ± 0.41 %ID/g and the tissue uptake at 17 min ([2]; heart (including contents)) was 1.65 ± 0.38 %ID/g. The tissue uptake at 20 min ([2]; heart (including contents)) was 1.51 ± 0.36 %ID/g, the tissue uptake at 23 min ([2]; heart (including contents)) was 1.41 ± 0.31 %ID/g and the tissue uptake at 26 min ([2]; heart (including contents)) was 1.28 ± 0.3 %ID/g. It also gave a tissue uptake at 29 min ([2]; heart (including contents)) of 1.18 ± 0.24 %ID/g, a tissue uptake at 0.5 h ([2]; heart (including contents)) of 1.21 ± 0.3 %ID/g and a tissue uptake at 1 h ([2]; heart (including contents)) of 0.65 ± 0.25 %ID/g. For the same compound, the tissue uptake at 2 h ([2]; heart (including contents)) was 0.15 ± 0.06 %ID/g, the tissue uptake at 4 h ([2]; heart (including contents)) was 0.06 ± 0.02 %ID/g and the tissue uptake at 2 min ([2]; kidney) was 15 ± 0.64 %ID/g. For the same compound, the tissue uptake at 5 min ([2]; kidney) was 14.6 ± 2.02 %ID/g, the tissue uptake at 8 min ([2]; kidney) was 14.9 ± 2.94 %ID/g and the tissue uptake at 11 min ([2]; kidney) was 15.2 ± 2.41 %ID/g. It also gave a tissue uptake at 14 min ([2]; kidney) of 15.1 ± 2.42 %ID/g, a tissue uptake at 17 min ([2]; kidney) of 14.4 ± 2.34 %ID/g and a tissue uptake at 20 min ([2]; kidney) of 14.4 ± 2.61 %ID/g. The tissue uptake at 23 min ([2]; kidney) was 13.9 ± 2.02 %ID/g, the tissue uptake at 26 min ([2]; kidney) was 12.5 ± 1.35 %ID/g and the tissue uptake at 29 min ([2]; kidney) was 11.5 ± 0.94 %ID/g. The tissue uptake at 0.5 h ([2]; kidney) was 11.6 ± 1.26 %ID/g, the tissue uptake at 1 h ([2]; kidney) was 9.68 ± 0.18 %ID/g and the tissue uptake at 2 h ([2]; kidney) was 8.82 ± 0.68 %ID/g. For the same compound, the tissue uptake at 4 h ([2]; kidney) was 8.03 ± 0.35 %ID/g, the tissue uptake at 2 min ([2]; liver) was 2.62 ± 0.25 %ID/g and the tissue uptake at 5 min ([2]; liver) was 2.22 ± 0.41 %ID/g. It also gave a tissue uptake at 8 min ([2]; liver) of 1.94 ± 0.35 %ID/g, a tissue uptake at 11 min ([2]; liver) of 1.6 ± 0.23 %ID/g and a tissue uptake at 14 min ([2]; liver) of 1.44 ± 0.23 %ID/g. The tissue uptake at 17 min ([2]; liver) was 1.23 ± 0.15 %ID/g, the tissue uptake at 20 min ([2]; liver) was 1.14 ± 0.14 %ID/g and the tissue uptake at 23 min ([2]; liver) was 1.07 ± 0.14 %ID/g. For the same compound, the tissue uptake at 26 min ([2]; liver) was 0.97 ± 0.16 %ID/g, the tissue uptake at 29 min ([2]; liver) was 0.91 ± 0.1 %ID/g and the tissue uptake at 0.5 h ([2]; liver) was 0.92 ± 0.07 %ID/g. It also gave a tissue uptake at 1 h ([2]; liver) of 0.59 ± 0.21 %ID/g, a tissue uptake at 2 h ([2]; liver) of 0.22 ± 0.04 %ID/g and a tissue uptake at 4 h ([2]; liver) of 0.13 ± 0.05 %ID/g. It also gave a tissue uptake at 2 min ([2]; muscle) of 1.06 ± 0.1 %ID/g, a tissue uptake at 5 min ([2]; muscle) of 1.02 ± 0.18 %ID/g and a tissue uptake at 8 min ([2]; muscle) of 0.97 ± 0.16 %ID/g. It also gave a tissue uptake at 11 min ([2]; muscle) of 0.91 ± 0.19 %ID/g, a tissue uptake at 14 min ([2]; muscle) of 0.82 ± 0.12 %ID/g and a tissue uptake at 17 min ([2]; muscle) of 0.74 ± 0.13 %ID/g. The tissue uptake at 20 min ([2]; muscle) was 0.69 ± 0.11 %ID/g, the tissue uptake at 23 min ([2]; muscle) was 0.66 ± 0.14 %ID/g and the tissue uptake at 26 min ([2]; muscle) was 0.67 ± 0.16 %ID/g. It also gave a tissue uptake at 29 min ([2]; muscle) of 0.56 ± 0.11 %ID/g, a tissue uptake at 0.5 h ([2]; muscle) of 0.55 ± 0.15 %ID/g and a tissue uptake at 1 h ([2]; muscle) of 0.26 ± 0.05 %ID/g. It also gave a tissue uptake at 2 h ([2]; muscle) of 0.07 ± 0.02 %ID/g, a tissue uptake at 4 h ([2]; muscle) of 0.03 ± 0.01 %ID/g and a tissue to tissue ratio at 0.5 h [2, 3] of 1.23 ± 0.25. For the same compound, the tissue to tissue ratio at 1 h [2, 3] was 2.08 ± 0.74, the tissue to tissue ratio at 2 h [2, 3] was 6.97 ± 3.01 and the tissue to tissue ratio at 4 h [2, 3] was 15.9 ± 5.85. For the same compound, the tissue to tissue ratio at 0.5 h ([2]; tumor and kidney) was 0.12 ± 0.01, the tissue to tissue ratio at 1 h ([2]; tumor and kidney) was 0.13 ± 0.03 and the tissue to tissue ratio at 2 h ([2]; tumor and kidney) was 0.12 ± 0.06. For the same compound, the tissue to tissue ratio at 0.5 h ([2]; tumor and liver) was 1.57 ± 0.14, the tissue to tissue ratio at 1 h ([2]; tumor and liver) was 2.24 ± 0.68 and the tissue to tissue ratio at 2 h ([2]; tumor and liver) was 4.53 ± 1.44. The tissue to tissue ratio at 0.5 h ([2]; tumor and muscle) was 2.69 ± 0.47, the tissue to tissue ratio at 1 h ([2]; tumor and muscle) was 5.01 ± 0.82 and the tissue to tissue ratio at 2 h ([2]; tumor and muscle) was 15.6 ± 3.52. The tissue to tissue ratio at 4 h ([2]; tumor and muscle) was 31.4 ± 9.05, the tissue uptake at 2 min ([2]; tumor) was 1.37 ± 0.21 %ID/g and the tissue uptake at 5 min ([2]; tumor) was 1.41 ± 0.13 %ID/g. For the same compound, the tissue uptake at 8 min ([2]; tumor) was 1.45 ± 0.13 %ID/g, the tissue uptake at 11 min ([2]; tumor) was 1.46 ± 0.09 %ID/g and the tissue uptake at 14 min ([2]; tumor) was 1.46 ± 0.07 %ID/g. For the same compound, the tissue uptake at 17 min ([2]; tumor) was 1.48 ± 0.08 %ID/g, the tissue uptake at 20 min ([2]; tumor) was 1.51 ± 0.13 %ID/g and the tissue uptake at 23 min ([2]; tumor) was 1.46 ± 0.09 %ID/g. It also gave a tissue uptake at 26 min ([2]; tumor) of 1.46 ± 0.13 %ID/g, a tissue uptake at 29 min ([2]; tumor) of 1.45 ± 0.14 %ID/g and a tissue uptake at 0.5 h ([2]; tumor) of 1.43 ± 0.13 %ID/g. The tissue uptake at 1 h ([2]; tumor) was 1.27 ± 0.28 %ID/g, the tissue uptake at 2 h ([2]; tumor) was 1.04 ± 0.45 %ID/g and the tissue uptake at 4 h ([2]; tumor) was 0.98 ± 0.46 %ID/g.
